Measurements published in patent US20230242665A1 (SYSTIMMUNE, published 2023).

T1: TROP2 antigen (extracellular region of TROP2, expressed in 293F cells) (human, UniProt P09758 27-274)
T1 construct: extracellular domain; The antigen was coated on ELISA plates; For the Octet assay it was biotin-labelled and immobilized on streptavidin sensors; also called TROP2 protein
T1 sequence (looked up): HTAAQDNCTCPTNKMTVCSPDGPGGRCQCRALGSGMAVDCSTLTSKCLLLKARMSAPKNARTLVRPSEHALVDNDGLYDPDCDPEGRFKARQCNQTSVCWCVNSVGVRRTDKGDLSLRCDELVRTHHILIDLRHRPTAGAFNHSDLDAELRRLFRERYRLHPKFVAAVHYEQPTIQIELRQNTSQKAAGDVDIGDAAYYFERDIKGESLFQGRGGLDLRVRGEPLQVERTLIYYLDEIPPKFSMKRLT

T2: TROP2 on BXPC-3 and MCF-7 cells (human, UniProt P09758 27-323)
T2 construct: whole, on cells; also called BxPC-3 cells; MCF-7 cells (positive cells)
T2 sequence (looked up): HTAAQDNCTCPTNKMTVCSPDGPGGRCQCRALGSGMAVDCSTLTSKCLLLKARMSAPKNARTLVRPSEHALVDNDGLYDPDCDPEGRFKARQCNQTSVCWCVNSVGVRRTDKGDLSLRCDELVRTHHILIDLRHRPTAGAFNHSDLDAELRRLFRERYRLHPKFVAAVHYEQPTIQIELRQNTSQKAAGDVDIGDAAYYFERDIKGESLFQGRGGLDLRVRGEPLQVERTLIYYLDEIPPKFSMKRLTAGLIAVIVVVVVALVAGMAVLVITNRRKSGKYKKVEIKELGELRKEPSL


How the values were obtained:
[1] = molecular target: T1, TROP2 antigen (extracellular region of …); assay: competition ELISA on TROP2-coated plate; competitor: 7F11-humanized-biotin
[2] = molecular target: T2, TROP2 on BXPC-3 and MCF-7 cells; assay: flow cytometry on BXPC-3 cells, 1 hr at 4 C, FITC-labelled secondary antibody
[3] = molecular target: T1, TROP2 antigen (extracellular region of …); assay: BLI (ForteBio Octet), biotin-labelled antigen on streptavidin sensor, antibody in solution
Text: Pall ForteBio Octet optical analysis technology platform is used to evaluate the absolute affinity of antibody-antigen binding. In this method, the biotin-labeled antigen is immobilized on the surface of the streptavidin biosensor chip, the baseline is balanced for 180 seconds, and then it binds with the antibody diluted in the solution concentration gradient for 30 seconds, which increases the optical thickness of the chip, resulting in The wavelength shifts (Δλ), and then enters the dissociation phase of 30 sec. The interaction between the Trop2 antigen and the corresponding antibody is measured in real time, and the specificity of binding, binding rate, dissociation rate or sample concentration are precisely and accurately measured at each concentration. After summarizing the k-on and k-off values under at least 5 concentration gradients, the KD binding constant is obtained.

[4] = molecular target: T2, TROP2 on BXPC-3 and MCF-7 cells; assay: flow cytometry on MCF-7 cells, 1 hr at 4 C, FITC-labelled secondary antibody
[5] = molecular target: T1, TROP2 antigen (extracellular region of …); assay: ELISA, TROP2-coated plate, anti-human Fc HRP
[6] = molecular target: T1, TROP2 antigen (extracellular region of …); assay: ELISA on a TROP2-coated plate, anti-human Fc HRP detection
Procedure: (§1) Dilute the chimeric antibody to a concentration of 50 ug/ml, add it to wells A1˜H1 on the TROP2-coated ELISA plate, and then perform a 3-fold horizontal dilution from A1 to A12; incubate at 37° C. for 1 hr, then rinse and add Mouse anti-human Fc HRP-labeled antibody was incubated at 37° C. for color development.

[7] = molecular target: T1, TROP2 antigen (extracellular region of …); assay: ELISA, TROP2-coated plate, chimeric antibody, anti-human Fc HRP
Procedure: as §1

[8] = molecular target: T1, TROP2 antigen (extracellular region of …); assay: competition ELISA on TROP2-coated plate; competitor: 0.5 ng/ml 4D3-humanized-biotin
Procedure: The 4D3-humanized antibody was labeled with biotin, and the inflection point value of the binding curve was determined by ELISA to be 0.5 ng/ml. Prepare an ELISA blocking solution containing 0.5 ng/ml 4D3 biotin-labeled antibody, and configure 50 ug/ml of competing antibodies 4D3-chimeric and 4D3-humanized on the basis of this solution. Add the solution containing biotin-labeled antibody and competing antibody to A1˜A12, 150 ul per well, then aspirate 50 ul and add to B2˜B12, mix well with the pre-added biotin antibody solution with a volume of 100 ul, and then dilute 3 times in sequence To H1˜H12, incubate at 37° C. for 1 hr, then wash and incubate the […], incubate at 37° C. for 1 hr, then wash 3 times, perform color development for 25 min and read the value.
FIG. 12: 4D3-humanized-biotin antibodies compete with ch4D3 and hum4D3 antibodies at 0.02-50 ug/ml, respectively. The two competing antibodies show the same degree of competitive activity and bind to the same epitope.

[9] = molecular target: T2, TROP2 on BXPC-3 and MCF-7 cells; assay: flow cytometry on BXPC-3 cells, 1 hr at 4 C, FITC-labelled secondary antibody; remark: listed apart in the source

Row | Binder | EC50 [1] [µg/mL] | EC50 (read off the curve) [2] [µg/mL] | Kd [3] [nM] | koff [3] [s⁻¹] | kon [3] [M⁻¹ s⁻¹] | EC50 (read off the curve) [4] [µg/mL] | EC50 [5] [µg/mL] | EC50 (read off the curve) [6] [µg/mL] | EC50 [7] [µg/mL] | EC50 [8] [µg/mL] | EC50 (read off the curve) [9] [µg/mL]
1 | 7F11 humanized antibody (antibody, V domains shown, also called Hu7F11; hu7F11) VH: QVQLVQSGAEVKKPGASVKVSCKASGYTFTDHVISWVRQATGQGLEWMGQIYPGSDNSYYAQKFQGRVTLTADKSINTAYMELSSLRSEDTAVYYCAREGYGYGKNGVGYAMDYWGQGTLVTVSS VL: DIVMTQSPDSLAVSLGERATINCKASQSVSNDVVWYQQKPGQPPKLLIYYASNRYTGVPDRFSGSGYGTDFTLTISSLQAEDVAVYYCQQDYSSPWTFGGGTKVEIKR | 0.856 | ~0.05 | 0.0994 | 1.85e-05 | 186000 | ~0.04 | 0.0601 |  |  |  | 
2 | 4D3 chimeric antibody (antibody, human IgG1, kappa, V domains shown, The entries begin with a leader (signal) peptide; also called ch4D3) VH: QVQLQQSGAELVKPGASVKLSCKASGYTFTSFDINWVRQRPEQGLEWIGWIFPGDGNTKSNEKFKGKATLTTDKSSSTAYMQLSRLTSEDSAVYFCVRGEALYYFDYWGPGTTLTVSS VL: DIQMTQSPSSLSASLGGKVTITCKPSQDINKYIAWYQHKPGKGPRLLIHSTSTLQPGIPSRFSGSGSGRDYSFTISNLEPEDIATYYCLQYDDLFTFGSGTKLEIKR |  |  | 6.89 | 0.00162 | 235000 |  | 0.056 | ~0.05 | 0.047 | 0.336 | 
3 | 4D3 humanized antibody (antibody, V domains shown, also called Hu4D3; hu4D3) VH: QVQLVQSGAEVKKPGASVKLSCKASGYTFTSFDINWVRQAPEQRLEWMGWIFPGDGNTKYSQKFQGRATITRDTSASTAYMELSSLRSEDTAVYYCVRGEALYYFDYWGQGTLVTVSS VL: DIQMTQSPSSLSASVGDRVTITCRASQDINKYLAWYQQKPGKVPKLLIYSTSTLQSGVPSRFSGSGSGTDFTLTISSLQPEDVATYYCLQYDDLFTFGQGTKLEIKR |  |  | 30.7 | 0.00428 | 139000 |  | 0.0502 |  |  | 0.326 | ~0.04
4 | 7F11 chimeric antibody (antibody, human IgG1, kappa, V domains shown, The entries begin with a leader (signal) peptide; also called ch7F11) VH: QVQLQQSGPEVVKPGASVKMSCKASGYTFTDHVISWVKQRTGQGLEWIGQIYPGSDNSYYSEKLKDKATLTADKSSNTAYMQLVSLTSEDSAVYFCAREGYGYGKNGVGYAMDYWGQGTSVTVSS VL: SIVMTQTPKFLLVSAGDRVTITCKASQSVSNDVVWYQQKPGQSPKLLIYYASNRYTGVPDRFTGSGYGTDFTFTISTAQAEDLAVYFCQQDYSSPWTFGGGTKLEIKR | 0.732 |  | 0.0611 | 1.45e-05 | 243000 |  | 0.061 | ~0.07 | 0.071 |  | 
